Drawing on patent US20130115678, this text covers activity (fidelity index) for 1 substance.

Holding throughout (assay): cleavage_in_vitro
The subject of data set [1] is T1, SbfI-HF K251A (Streptomyces species Bf-61).
T1 sequence: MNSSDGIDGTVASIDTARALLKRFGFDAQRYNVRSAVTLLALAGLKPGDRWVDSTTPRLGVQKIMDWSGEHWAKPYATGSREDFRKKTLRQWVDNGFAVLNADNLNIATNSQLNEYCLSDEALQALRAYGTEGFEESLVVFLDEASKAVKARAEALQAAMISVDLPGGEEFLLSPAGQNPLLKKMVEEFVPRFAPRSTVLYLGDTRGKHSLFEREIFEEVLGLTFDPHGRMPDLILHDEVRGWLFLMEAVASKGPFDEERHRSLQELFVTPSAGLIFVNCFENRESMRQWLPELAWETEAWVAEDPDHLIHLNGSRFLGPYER
The settings on record: NEB4, 37 C, Mg2+; FI NEB1-3: 1000, 120, 8.

In data set [2] the test system is BstXI (Bacillus stearothermophilus). The settings on record: NEB4, 55 C, Mg2+; FI NEB1-3: 2, 2, 2.
Data set [3] has as its target T2, HpaI (Haemophilus parainfluenzae) (UniProt P29537).
T2 sequence: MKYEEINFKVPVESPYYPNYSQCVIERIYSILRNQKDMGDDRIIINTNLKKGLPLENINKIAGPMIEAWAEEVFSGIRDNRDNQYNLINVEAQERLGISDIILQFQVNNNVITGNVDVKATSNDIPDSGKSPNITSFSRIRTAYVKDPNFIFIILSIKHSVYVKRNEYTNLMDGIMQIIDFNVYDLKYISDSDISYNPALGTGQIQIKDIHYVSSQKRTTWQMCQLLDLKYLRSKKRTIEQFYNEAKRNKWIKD
The settings on record: NEB4, 37 C, Mg2+; FI NEB1-3: 32, 1, 2.

Data set [4] deals with T3, ScaI-HF H193A/S201F (Streptomyces caespitosus) (UniProt O52691).
T3 sequence: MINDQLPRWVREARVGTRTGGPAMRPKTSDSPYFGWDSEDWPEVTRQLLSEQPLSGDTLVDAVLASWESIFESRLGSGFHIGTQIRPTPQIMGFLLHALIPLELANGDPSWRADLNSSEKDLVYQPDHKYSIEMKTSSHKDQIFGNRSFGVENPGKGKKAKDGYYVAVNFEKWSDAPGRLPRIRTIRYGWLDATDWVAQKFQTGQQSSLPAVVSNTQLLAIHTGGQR
The settings on record: NEB4, 37 C, Mg2+; FI NEB1-3: 4000, 1000, 2000.

Data set [5] addresses T4, PstI-HF D91A (Providencia stuartii 164) (UniProt P00640).
T4 sequence: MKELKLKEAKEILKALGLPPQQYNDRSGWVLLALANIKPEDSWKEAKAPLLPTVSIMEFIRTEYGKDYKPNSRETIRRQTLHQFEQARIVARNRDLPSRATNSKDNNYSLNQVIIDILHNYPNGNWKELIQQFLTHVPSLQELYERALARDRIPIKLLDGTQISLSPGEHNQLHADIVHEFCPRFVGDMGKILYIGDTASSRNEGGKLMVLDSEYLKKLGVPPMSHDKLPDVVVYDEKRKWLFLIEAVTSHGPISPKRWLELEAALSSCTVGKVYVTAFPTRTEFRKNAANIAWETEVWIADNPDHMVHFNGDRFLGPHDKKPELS
The settings on record: NEB4, 37 C, Mg2+; FI NEB1-3: 1000, 4000, 4000.

Data set [6] deals with EcoRI (Escherichia coli RY13) (UniProt P00642). The settings on record: NEB4, 37 C, Mg2+; FI NEB1-3: 250, 4, 250.
Data set [7] addresses T5, BamHI-HF E163A/E167T (Bacillus amyloliquefaciens) (UniProt P23940).
T5 sequence: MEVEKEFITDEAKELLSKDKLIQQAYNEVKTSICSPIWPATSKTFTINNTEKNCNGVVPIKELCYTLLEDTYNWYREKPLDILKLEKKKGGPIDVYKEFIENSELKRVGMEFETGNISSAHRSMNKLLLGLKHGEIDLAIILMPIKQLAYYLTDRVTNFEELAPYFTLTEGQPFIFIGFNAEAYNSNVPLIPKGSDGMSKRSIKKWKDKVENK
The note with it: NEB4, 37 C, Mg2+; FI NEB1-3: >=4000, >=4000, >=250.

For data set [8], the system named is T6, SphI (Streptomyces phaeochromogenes).
T6 sequence: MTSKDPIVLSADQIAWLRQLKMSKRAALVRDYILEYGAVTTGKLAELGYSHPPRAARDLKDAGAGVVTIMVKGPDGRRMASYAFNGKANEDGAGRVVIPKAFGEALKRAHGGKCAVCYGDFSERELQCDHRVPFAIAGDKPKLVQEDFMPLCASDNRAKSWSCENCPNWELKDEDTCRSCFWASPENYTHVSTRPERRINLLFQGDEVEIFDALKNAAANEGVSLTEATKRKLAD
The note with it: NEB4, 37 C, Mg2+; FI NEB1-3: 64, 32, 64.

Data set [9] concerns T7, BspQI (Bacillus sphaericus).
T7 sequence: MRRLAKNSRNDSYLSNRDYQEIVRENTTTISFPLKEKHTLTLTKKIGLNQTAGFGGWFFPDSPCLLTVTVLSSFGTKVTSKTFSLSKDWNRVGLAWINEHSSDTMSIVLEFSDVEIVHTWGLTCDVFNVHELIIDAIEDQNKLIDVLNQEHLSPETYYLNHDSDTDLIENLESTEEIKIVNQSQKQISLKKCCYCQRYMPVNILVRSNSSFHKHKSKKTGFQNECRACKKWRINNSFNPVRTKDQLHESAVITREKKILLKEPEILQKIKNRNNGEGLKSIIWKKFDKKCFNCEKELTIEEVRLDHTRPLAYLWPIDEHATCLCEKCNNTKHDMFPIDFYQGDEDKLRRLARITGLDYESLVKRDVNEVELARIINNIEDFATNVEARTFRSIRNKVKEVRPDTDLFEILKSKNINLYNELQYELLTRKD
The settings on record: NEB4, 50 C, Mg2+; FI NEB1-3: 2, 16, 32.

The test system of data set [10] is BstXI-HF N65A (Bacillus stearothermophilus). The settings on record: NEB4, 55 C, Mg2+; FI NEB1-3: >=120, >=250, >=16.

Turning to lambda phage DNA, the activity (fidelity index) in data set [1] was found to be 250; in data set [2], 4; in data set [3], 16; in data set [4], 1000; in data set [5], 4000; in [6], 4. For the same substance, the activity (fidelity index) in data set [7] was above 4000; in [8], 16; in [9] it was 4; in data set [10] it was above 250.
